From US20050130898A1 (HIDECHIKA OKADA, published 2005)
Blank lines part the entries; values can stand above or below the binder they belong to. Bridge positions count the residues as written; N and C are the ends. Ends that are not written are not given here. I, II: the chains in the order shown.

Experiments:
Carboxypeptidase R (CPR) [1] = biological target: T1, Carboxypeptidase R (CPR) (human, UniProt Q96IY4 115-423); test: cell-based or functional assay
T1 sequence (looked up): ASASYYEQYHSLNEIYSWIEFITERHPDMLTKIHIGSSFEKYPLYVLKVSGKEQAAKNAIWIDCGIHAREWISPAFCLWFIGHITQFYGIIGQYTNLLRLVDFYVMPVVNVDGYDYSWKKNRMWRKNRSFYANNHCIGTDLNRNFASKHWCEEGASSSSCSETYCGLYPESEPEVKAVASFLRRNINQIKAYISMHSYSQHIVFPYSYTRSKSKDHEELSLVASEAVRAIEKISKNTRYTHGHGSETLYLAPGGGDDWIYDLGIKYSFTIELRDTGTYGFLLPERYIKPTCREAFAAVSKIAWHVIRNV

Carboxypeptidase R (CPR) [2] = biological target: T1, Carboxypeptidase R (CPR); test: enzyme kinetics, CPR hydrolysis of hippuryl-L-arginine, competitive inhibition
Protocol: (§1) The reduced inhibitory activity of this PCI-derived peptide may be attributed to the absence of two of the three disulfide bridges founds in wild type PCI, effectively resulting in increased mobility of all residues.
(§2) The activity of the CPR inhibitors was determined against purified CPR using hippuryl-L-arginine as the substrate. The peptides PCI-2K-R, CPI-2KR, PCI (500, 250/125/62.5, 50 mg/ml, respectively) or Tris-HCl buffer (50 mM; pH 7.5) were added to active CPR (40-320 mg/ml) at a 1:7 ratio. After thorough mixing, […] was incubated with various concentrations of hippuryl-L-arginine (1.2-6.0 mM), for 15 minutes at 37° C. The reaction was stopped with the addition of sodium phosphate buffer ([…]; 0.25 M), immediately followed by 3% cyanuric chloride in 1,4-dioxane ([…]). After mixing well, the generation of hippuric acid was determined by measuring the OD at 405 nm on a SpectraMAX 250 Microplate Spectrophotometer (Molecular Device Corporation, Sunnyvale, Calif., USA). Hippuric acid (0-2.0 mM) in Tris buffer was used as the standard.
(§3) A kinetics analysis of the CPR-catalysed hydrolysis of hippuryl-L-arginine in the absence and presence of inhibitory molecules was performed. The Lineweaver-Burk reciprocal plot, based on rearrangement of the Henri-Michaelis-Menten equation into a linear form, was applied: […]

Carboxypeptidase R (CPR) [3] = biological target: T1, Carboxypeptidase R (CPR); test: enzyme kinetics, Ki against that of PCI
Protocol: as §1, §2, §3

Carboxypeptidase R (CPR) [4] = biological target: T1, Carboxypeptidase R (CPR); test: enzyme kinetics, Ki against that of PCI-2K-R
Protocol: (§4) In order to gain insight into the inhibitory mechanism of CPI-2KR against CPR, a classical Henri-Michaelis-Menten kinetics analysis was performed. Since the Lineweaver-Burke plot (FIG. 3C) is prone to error, particularly at low concentrations of inhibitor and substrate, the Dixon plot (1/v versus [I]) was employed to evaluate the inhibitory mechanism of CPI-2KR (FIG. 3D). Replotting of the slopes of the Dixon plot against 1/[S] confirmed that CPR-2KR is a competitive inhibitor of CPR given that the line went through the origin (FIG. 3D insert). The Km Kmₐₚₚ and Vmax were determined from the data obtained for no inhibitor and the highest inhibitor concentration (253 nM) from the Lineweaver-Burke plots (FIG. 3E) . These values were in turn used to calculate the dissociation constant of CPI-2KR (Ki).
(§5) The activity of the CPR inhibitors was determined against purified CPR using hippuryl-L-arginine as the substrate. The peptides PCI-2K-R, CPI-2KR, PCI (500, 250/125/62.5, 50 mg/ml, respectively) or Tris-HCl buffer (50 mM; pH 7.5) were added to active CPR (40-320 mg/ml) at a 1:7 ratio. […] After mixing well, the generation of hippuric acid was determined by measuring the OD at 405 nm on a SpectraMAX 250 Microplate Spectrophotometer (Molecular Device Corporation, Sunnyvale, Calif., USA). […]

Carboxypeptidase R (CPR) [5] = biological target: T1, Carboxypeptidase R (CPR); test: enzyme kinetics, CPR hydrolysis of hippuryl-L-arginine, Lineweaver-Burke at 253 nM inhibitor
Protocol: as §4, §5

[6] = biological target: T2, CPI-2KR (linear 9-mer peptide Cys-Lys-Pro-Ala-Lys-Asn-Ala-Arg-Cys)
T2 chain: CKPAKNARC

- Ki (Carboxypeptidase R (CPR) [2]): 1.4 nM
Binder: QQHADPICNKPCKTHDDCSGAWFCQACWNSARTCGPYVG (other, UniProt P01075 1-39, looked up, disulfide 12-27, 18-34, 8-24, mature) [potato carboxypeptidase inhibitor (PCI)]
- reversal of TM-induced suppression of t-PA-induced fibrinolysis in human plasma (Carboxypeptidase R (CPR) [1]): 12 nM

- effective inhibitory concentration relative to PCI (fold) (Carboxypeptidase R (CPR) [1]): 10 fold
- fold higher Ki than that of PCI (Carboxypeptidase R (CPR) [3]): 6 fold
- fold stronger binding affinity than PCI-2K-R (Carboxypeptidase R (CPR) [4]): ~46 fold
- Ki (Carboxypeptidase R (CPR) [5]): 8.8 nM
B1: CPI-2KR (linear 9-mer peptide Cys-Lys-Pro-Ala-Lys-Asn-Ala-Arg-Cys) (peptide)
peptide: CKPAKNARC-NH2
modifications: cysteine pairing not given here
notes: Linear form, no disulfide between the terminal Cys residues
- effective inhibitory concentration, TM-induced retardation of t-PA-induced fibrinolysis (Carboxypeptidase R (CPR) [1]): 126 nM

- fold lower inhibitory activity compared to PCI (Carboxypeptidase R (CPR) [3]): 290 fold
- Ki (Carboxypeptidase R (CPR) [2]): 407 nM
B2: PCI-2K-R (heterodimer of PCI-2K and PCI-R joined by a disulfide bond) (peptide)
chain 1: NKPCKTHDD-NH2
chain 2: QACWNSART-NH2
modifications: disulfide I:4-II:3; N-terminus assumed
SMILES: C[C@H](NC(=O)[C@H](CO)NC(=O)[C@H](CC(N)=O)NC(=O)[C@H](Cc1c[nH]c2ccccc12)NC(=O)[C@H](CSSC[C@H](NC(=O)[C@@H]1CCCN1C(=O)[C@H](CCCCN)NC(=O)[C@@H](N)CC(N)=O)C(=O)N[C@@H](CCCCN)C(=O)N[C@H](C(=O)N[C@@H](Cc1c[nH]cn1)C(=O)N[C@@H](CC(=O)O)C(=O)N[C@@H](CC(=O)O)C(N)=O)[C@@H](C)O)NC(=O)[C@H](C)NC(=O)[C@@H](N)CCC(N)=O)C(=O)N[C@@H](CCCNC(=N)N)C(=O)N[C@H](C(N)=O)[C@@H](C)O
notes: also called CPI-2K-R (label in claim 5)

More lines, now with the values behind:

B3: Carboxypeptidase N (CPN) (protein)
chain 1: CPMGCDCFVQEVFCSDEELATVPLDIPPYTKNIIFVETSFTTLETRAFGSNPNLTKVVFLNTQLCQFRPDAFGGLPRLEDLEVTGSSFLNLSTNIFSNLTSLGKLTLNFNMLEALPEGLFQHLAALESLHLQGNQLQALPRRLFQPLTHLKTLNLAQNLLAQLPEELFHPLTSLQTLKLSNNALSGLPQGVFGKLGSLQELFLDSNNISELPPQVFSQLFCLERLWLQRNAITHLPLSIFASLGNLTFLSLQWNMLRVLPAGLFAHTPCLVGLSLTHNQLETVAEGTFAHLSNLRSLMLSYNAITHLPAGIFRDLEELVKLYLGSNNLTALHPALFQNLSKLELLSLSKNQLTTLPEGIFDTNYNLFNLALHGNPWQCDCHLAYLFNWLQQYTDRLLNIQTYCAGPAYLKGQVVPALNEKQLVCPVTRDHLGFQVTWPDESKAGGSWDLAVQERAARSQCTYSNPEGTVVLACDQAQCRWLNVQLSPQQGSLGLQYNASQEWDLRSSCGSLRLTVSIEARAAGP
chain 2: VTFRHHRYDDLVRTLYKVQNECPGITRVYSIGRSVEGRHLYVLEFSDHPGIHEPLEPEVKYVGNMHGNEALGRELMLQLSEFLCEEFRNRNQRIVQLIQDTRIHILPSMNPDGYEVAAAQGPNKPGYLVGRNNANGVDLNRNFPDLNTYIYYNEKYGGPNHHLPLPDNWKSQVEPETRAVIRWMHSFNFVLSANLHGGAVVANYPYDKSFEHRVRGVRRTASTPTPDDKLFQKLAKVYSYAHGWMFQGWNCGDYFPDGITNGASWYSLSKGMQDFNYLHTNCFEITLELSCDKFPPEEELQREWLGNREALIQFLEQVHQGIKGMVLDENYNNLANAVISVSGINHDVTSGDHGDYFRLLLPGIYTVSATAPGYDPETVTVTVGPAEPTLVNFHLKRSIPQVSPVRRAPSRRHGVRAKVQPQARKKEMEMRQLQRGPA
- CPN-catalysed hydrolysis of hippuryl-L-arginine [6]: CPI-2KR did not exhibit any inhibitory activity against CPN at 506 nM

B4: Carboxypeptidase R (CPR) (protein)
chain: T1 sequence (looked up)
- Dixon plot and slope replot, CPR-catalysed hydrolysis of hippuryl-L-arginine [6]: confirmed that CPR-2KR is a competitive inhibitor of CPR
